Values quoted from earlier work as cited in paper PMC3128988.

Target: CD47 (Homo sapiens) (UniProt Q08722)
UniProt Q08722, sequence (Q08722 19-323): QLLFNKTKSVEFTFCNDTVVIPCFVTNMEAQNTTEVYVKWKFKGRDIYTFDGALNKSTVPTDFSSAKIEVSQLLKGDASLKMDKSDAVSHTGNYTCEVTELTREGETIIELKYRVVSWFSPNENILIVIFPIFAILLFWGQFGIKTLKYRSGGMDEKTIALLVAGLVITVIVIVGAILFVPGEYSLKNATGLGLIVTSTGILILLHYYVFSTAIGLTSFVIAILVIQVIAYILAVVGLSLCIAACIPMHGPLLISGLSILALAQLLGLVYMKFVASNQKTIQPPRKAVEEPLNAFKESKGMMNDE

Kd: 1000 nM
Substance: SIRPα (from UniProt P78324)
